# In article PMC5431086, “The Rational Design of Therapeutic Peptides for Aminopeptidase N using a Substrate-Based Approach” (Scientific Reports, 2017):
# Target: recombinant human aminopeptidase N (hAPN) (human) (UniProt P15144)
# Test: enzyme inhibition assay (competition with the fluorogenic substrate H-Ala-AMC); 0.1 μM APN, 100 μM H-Ala-AMC, 100 mM Tris pH 7.2, Brij 35 0.0002% w/v, 37 °C, triplicate; inhibition competitive, Ki from the IC50 by the Cheng-Prusoff equation
Substance,IC50,Ki
nHSPW (peptide),6.5 µM,
nDQIY (peptide),> 500 µM,
cyc-nHSPW (peptide),,> 500 µM
